Experiment: yeast display, Sf9 membrane polyspecificity reagent, FACS + sequencing; frameworks hold sequencing errors
In short: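 Using colony PCR, genes from sorted yeast display clones were amplified, then sequenced on MiSeq at 2 × 250 and filtered by CDR length. The clones had been stained with 10% biotinylated, detergent-solubilized Sf9 membrane reagent for 1 hour at 4 °C and sorted by FACS into low and high (top ~1%) gates on anti-HA and streptavidin fluorescence. Polyreactivity labels come from the gate of origin.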

## QVQLVESGGGLVQAGGSLRLSCAASGSTFGFYAMGWYRQAPGKERELVAAIDWISGSTYYADSVKGRFTISRDNAKNTVYLQLNSLKPEDTAVYYCAAQFYYHFRYHFDWGQGTQVTVSS
  polyreactivity (PSR sort gate): low polyreactivity

## QVQLVESGGGLVQAGGSLRIICAASGRIFYGNTMGWYRQAPGKERELVAAITIGDSTNYADSVKGRFTISRDNAKNTVYFQMNSLKPEDTAVYYCAKRNWWGYYNYDYWGQGTQVTVSS
  polyreactivity (PSR sort gate): low polyreactivity

## QVQLVESGGGLVQAGGSLRLSCAASGLTFDKYTMGWYRQAPGKERELVARISTSGSRTYYADSVKGRFTISRDIAKNTVYLQMNSLKPEDTAVYYCNKDGWIRRRRGYDYWGQGTQVTVSS
  polyreactivity (PSR sort gate): high polyreactivity

## QVQLVESGGGLVQAGGSLRLSCAASGFIFYDNAMGWYRQAPGKERELVAAIDWSGDSTYYADSVKGRFTISRDNAKNTVYLQMNSLKPEDTAVYYCAADSQDPGDYYLFDYWGQGTQVTVSS
  polyreactivity (PSR sort gate): low polyreactivity

## QVQLVESGGGLVQAGGSLRLSCAASGSIFSYNALGWYRQAPGKEREFVAAISARGGSTYYADSVKGRFTISRDNAKNTVYLLMNSLKPEDTAVYYCAASWGLGTYSDSTYWGGYYYWGQGTQVTVSS
  polyreactivity (PSR sort gate): low polyreactivity

## QVQLVESGGGLVQAGGSLRLSCAASGFIFGTYVMGWYRQAPGKERELVAAISESGGRTYYADSVKGRFTISRDNAKNTVYLQMNSLKPEDTADYYCAKLRHIRFHYYYGYQSYYYWVQGTQVTVSS
  polyreactivity (PSR sort gate): high polyreactivity

## QVQLVESGGGLVQAGGRLRLSCAASGSTFRPYAMGWYRQAPGKERELVAAITFNGDTYADSVKGRFTISRDNAKNTVYLQMNSLKPEDTAVYYCAARKWYYYLRPWTSVGGYYWGQGTQVTVSS
  polyreactivity (PSR sort gate): high polyreactivity

## QVQLVESGGGLVQAGGSLRLSCAASGNTFPTYAMGWYRQAHGKERELVAAINKRGSNTYYADSVKGRFTISRDNAKNTVYLQMNSLKPEDTADYYARAAGEYDYWGQGTQVTVSS
  polyreactivity (PSR sort gate): high polyreactivity

## QVQLVESGGGLVQAGGSLRLSCAASGRTFPFNAMGWYRQAPGKERELVAVINSGGSTYYADSVKGRFTISRDNAKNTVYLQMNSLKPEDTAVYYCNAYSSRYRYNYWGQGTQVTVSS
  polyreactivity (PSR sort gate): high polyreactivity

## QVQLVESGGGLVQAGGSLRLSCAASGRTLYYYAMGWYRQAPGKERELVAAITRSGGSTYYADSVKGRFTISRDNAKNTVYLQMISLKPEDTEVYYFNKYGYKGGLGYDYWGQGTQVTVSS
  polyreactivity (PSR sort gate): high polyreactivity

## QVQLVESGGGLVQAGGSLRLSSPASGSTYVVYAMGWYRPAPGKERELVADITRSGGSTYYADSVKGRFTISRDNAKNTVYLQMNSLKPEDSAVYYCAAVRRNGPYKYYYWGQGTQVTVSS
  polyreactivity (PSR sort gate): high polyreactivity

## QVQLLESGGGLVQAGGSLRLSCAASGSIFLLNAMGWYRQAPGKERELVASISRGGVRTNYADSEKGRFTISRDNAKNTVYLQMISLKPEDTAVYYCAAGTRPFGYRRDYWGQGTQVTVSS
  polyreactivity (PSR sort gate): high polyreactivity

## QVQLVESGGGLVQAGGSLRLSCAASGSIFSPNAMGWYRQAPGKEMELVPRITSGGSTFYADSVKGRFTISRDYAKNTVYLQMYSLKPEDTAVSYCAAVQTRYTSVFSSTRYDYWGQGTQVTVSS
  polyreactivity (PSR sort gate): low polyreactivity

## QVQLVESCGGLVEAGGSLRLSCAASGSILYSNAMGWYRQGPGKESELVAAIRSGGSTSYADSVKGRFTISRDNANNTVYLQMNSLKPDDTAVYYSAADPSSGVTYGMYYWGQGSQVTVSS
  polyreactivity (PSR sort gate): low polyreactivity

## QVQLVESGGGLVQAGGSLRLSCADSGSIFPFYAMGWYRQAPGKERELVASISSGGSTNYADSVKGRFTISRDNAKKTVYLQMNSLKPEDTAVYYCNAVGTFVRYGTDGRDGVNYDYWGQGTQVTVSS
  polyreactivity (PSR sort gate): low polyreactivity

## QDQLVESGGGLVQAGGSLRLSCAASGSIFTFNTMGWYRQAPVKERELVATISSGGRTYYADSVKGRFTISRDNAKNTVYLQMNSLKPEDTSVYYCNKGYYGYTYVEYNYWGQGTQVTVSS
  polyreactivity (PSR sort gate): low polyreactivity

## QVQLVESGGGIVQAGGSLRLSCAASGRTFIRYTRGWYRQAPGKERELVGSIRYSGASTSYADSVKGRFTISRDNAKNTVYLQMNSLKPEDTAVYYCAARFGRYSHRYYYWGQGTQVTVSS
  polyreactivity (PSR sort gate): high polyreactivity

## QVQLVESGGGLVQAGGSLRLSCAASGRTFPYYAMGWYRQATGKERELVAAIRSSGDRTYYADSVKGRFTISRDNAKNTVYLQMNSLKPEDTAVYYCNKVFLRSRRYYWGQGTQVTVSS
  polyreactivity (PSR sort gate): high polyreactivity

## QVQLVESGGGLVQAGGSLRLSCAASGRTLSANAMGWYRQAPGKERELVATISTRGGRTYYADSVKGRFTISRDNAKNTVYLQMNSLKPEDTAVYYCAVTIRAKYTLKEDYWGQGTQVNVSS
  polyreactivity (PSR sort gate): low polyreactivity

## QVQLVESGGGLVQAGGSLRLSCAASGLTFMYYAMGWYRQAPGKERELVAAISKGGGSTYYADSVKGRFTISRDNAKNTVYLQMNSLKPEDTAVYYCNADKVTRVTYWDDSWGLGTQVTVSS
  polyreactivity (PSR sort gate): high polyreactivity

## QVQLQESGGGLVQAGGSQRLSCAASGYIIYFQYMGWYRQAPGKEREFVAAISDGANTNYADSVKGRFTISRDNAKNTEYLQMNSLKPEDTAVYYCAVYADENYYYIYWGQGTQVTVSS
  polyreactivity (PSR sort gate): low polyreactivity

## QVQLVESGGGLVQAGGSLRLSCAASGSTRYNAMGWYRQAPGKERELVASIRGNAGSTYYADSVKGRFTISRDNAKNTVYLQMNSLKPEDTAVYYCNARVLRYSCFHYDYCGQGTQVTVSS
  polyreactivity (PSR sort gate): high polyreactivity

## QVQLVESAGGLVQAGGSLRLSCAATGLIFKYYAMVWYRQAPGKEREMVATITRGGGSTYYADSVKGRFTISRDNAKNTVYFQMNSLKPEDTAVYYCAKRTSWKYGYWGQGTQVTVSS
  polyreactivity (PSR sort gate): high polyreactivity

## QVHLVESGGGLVQAGGSLRLSSAASGRTFRGNAMGWYRQPPGKEREFDAVISGSGGSTYYADSVKGRFTISRDNAKNTVYLQMNSLKPEDTAVYYCGDKPSRWQRYDYWGQGTQVTVSS
  polyreactivity (PSR sort gate): high polyreactivity

## QVQLVESGGGLVQAGGSLRLSCAASGTTFSPNAMGWYRQAPGKERELVAAIRGSGSRTYADSVKGRFTISRDNAKNSVYLQMNSLKPEDTAVYYCAAEWIYDTDYWYYSYYYWGQGTQVTVSS
  polyreactivity (PSR sort gate): low polyreactivity

## QVQLVESVGGLVQAGGSLRLSCAASGSIFVTNALGWYRQAPGKERELVAAISSGGNTNYADSVKGRFTISRDNAKNTVYLQMNSLKPEDTAVYDCAKDPDKVDYVDMDYWGQGTQVTVSS
  polyreactivity (PSR sort gate): low polyreactivity

## QVQLVESGGGLVQAGGSLRLSCAASGFTIYGNAMGWSRQAPGKERELVAAITWRGGSTYYADSVKGRFTISRDNAKNTVYLQMNSLKPEDTAVYYCAARWLLGYYRYDYWGQGTQVTVSS
  polyreactivity (PSR sort gate): high polyreactivity

## QVQLVESGGGLVQAGGSLRLSCAASGSIFSGNAMGWYRQAPGKERELVAAITSSGGSTYYADSVKGRFTISRDNAKNTVYLQMNSLKPEDTAVYYCAKDYYSKHFPIYDYWGQGTQVTVSS
  polyreactivity (PSR sort gate): low polyreactivity

## QVQLVESGGGLVQAGGSLRLTCAASARTFFGYAMGWYRQAHGKARELVARIRWSTTYYADSVKGRFTISRDNAKNTVYLQMNSLKPEDTAVYYCNAVYYYVGYRYDYWGQGTQVTVSS
  polyreactivity (PSR sort gate): high polyreactivity

## QVQLVESGGGLVQAGGSLRLSCAASGRIFDGNAMGWDRPAPGKERELVADISVTGGSTYYADSVKGRFTISRDNAKNTVYLQMNSLKPEDTAVYYCNAYPFSRSVQLRDYWGQGTQVTVSS
  polyreactivity (PSR sort gate): low polyreactivity

## QVHLVESGGGLVQAGGSLRLSFAASGSTFYVNAMGWYRQAPGKERELVAAIRYSGGRTYYADSVKGRFTISRDNAKNNVYLQLNRLKPEDTAVYFCAATTYYGGLYTREFDYWGQGTQVTVSS
  polyreactivity (PSR sort gate): low polyreactivity

## QVQLVESGGGLVQAGGSLRLSCAASGRTFPVYAMGWYRQAPGQERELVAAINTSGTSTYYADSVKGRFTISRDNAKNTVYLQMNSLKPEDTAVYYCATRYRYTYYWGQGTQVTVSS
  polyreactivity (PSR sort gate): high polyreactivity

## QVQLVESGGGLVQAGGSLRLSCAASGGIFSGYAMGWYRQAPGKARELVAAISRRGTRTYYADSVKGRFTISRDNAKNTVDLQKNSLTPEDTAVYYCNAELDSLGTYDYWGQGTQVTVSS
  polyreactivity (PSR sort gate): high polyreactivity

## QVQLVDSGGGLVQAGGSLRLSCAASGIIFWRYAMGWYRQAPGKERELVASISSSGGRTYYADSVKGRFTISRDNAKNTVYLQMNSLKPEDTAVYYCAARGPYGYDLLYYWGQGTQVTVSS
  polyreactivity (PSR sort gate): high polyreactivity

## QVQLVDSGGGLVQAGGSLRLICAASGRIFYTNAMGWYRQAPGKERELVAAIDYSDSTTYYADSVKRRYTISRDNAKNTVYLQMNSLKPEDTAVYYCAAESYLYTVTFEYWGQGTQVTVSS
  polyreactivity (PSR sort gate): high polyreactivity

## QVQLVESGGGLVQAGGSLRLICAASGRIFRGNAMGWYRQAPGKEMELVDTITIRGGSTYYADSVKGRFTISRDNAKNTVYLKMNSLIPEDTAVYYCNTRTYGYLTQKYDYWGQGTQVTVSS
  polyreactivity (PSR sort gate): high polyreactivity

## QVQLVESGGGLVQAGGSLRLSCAASGRSFESYAMGWYRQAPGKERELVAAITWSGGDTYYADSVKGRFTISRDNAKNTVYLQMNSLKPEDTAVYYCAKEQGLYSVSPYDYWGQGTQVTVSS
  polyreactivity (PSR sort gate): low polyreactivity

## QDQLLESGGGLVQAGGSLRLSCAASGSTFGANAMGWYRQAPGKEREFVAAISRSGLRTYYADSVKGRFTNSRDYAKNTVYIQMNSLKPEDTAVYYCSADCYWWTYTRYDYWGQGSQVTVSS
  polyreactivity (PSR sort gate): low polyreactivity

## QDQLVESGGGLVQAGGSLRLSCAASGGIFPPNVMGWYRQAPGKERELVAAISRSGGSTYYADSVKGRFTFSRDNAMNTVYLQMNSLKPEDTAVYYCAAANTQRGFRYDYWGQGTQVTVSS
  polyreactivity (PSR sort gate): high polyreactivity

## QVQLVESGGGLVQAGGSLSLSCAASGITFVFYTMGWYRQAPGKERELVAAISRSGASTYYADSVKGRFTISRDNAKNTVYLQMNSLKPQDTAVDYCAADRGYRFRMDYWGQGTQVTVSS
  polyreactivity (PSR sort gate): high polyreactivity

## QVQLVESGGGLVQAGGSLRLSCAASGRTFTSYAMGWYRQEHGKERELVAGISSGGSTNYADSVKGRFTLSRDNAKNTVYLQMNSLKPEDTAVYYWAAGFSPGSYDAPTLAFEYWGQGTQVTVSS
  polyreactivity (PSR sort gate): low polyreactivity

## QVQLVESGGGLVQAGGSLRLSCAASGSTFGRNAMGWYIQAPGKERELVAAISNRGGRTYYADSVKARFTISRDNAKNTVYFQMNSLKPEDTAVYYCAAEHRVQQGDYWGQGTQVTVSS
  polyreactivity (PSR sort gate): high polyreactivity

## QVQLVESGGGLFQAGGSLRLSCADSGSTFSLYAMGWDRQAPGKDRELVAAITWSGGSTYYADSEKGRFTISRDNAKTTVYLQMTSLPPEDTAVYYCAAHRIGYYLRVSYRGKYDHWGQGTQVTVSS
  polyreactivity (PSR sort gate): low polyreactivity
